Consider three molecules from patent US20120156203A1 (Genentech, published 2012).

What is called EC50 (read off the curve) is the concentration at which the effect is half-maximal. Higher therefore signals a less potent agent.

For assay [1], the target named is T1, human IL13 (human, UniProt P35225 35-146).
T1 construct: also called E. coli expressed non-glycosylated human IL13 (R&D Systems); recombinant IL13
Description: ELISA; wells coated with E. coli expressed non-glycosylated human IL13 (0.1 µg/mL); bound MAb detected with HRP-goat anti-mouse IgG (Fc); OD 450 nm. The method, then:
(§1) The reactivity of various anti-IL13 monoclonal antibodies was tested by ELISA. Different wells of 96-well microtest plates were coated with either E. coli expressed non-glycosylated human IL13 (R&D Systems), 293T cell expressed glycosylated MT-IL13/Fc, or E. coli expressed mouse IL13 (R&D Systems) by the addition of 100 μL of IL13 protein at 0.1 μg/mL in PBS. After overnight incubation at room temperature, the wells were treated with PBSTB (PBST containing 2% BSA) to saturate the remaining binding sites. The wells were then washed with PBST.
(§2) One hundred microliters of two-fold serially diluted anti-IL13 MAbs (0.5 μg/mL (3.33 nM) to […] (0.00033 nM)) were added to the wells for 1 hour at room temperature. An anti-IL13 MAb JES-5A2 from (BD Biosciences-Pharmingen, San Diego, Calif.) was also tested as a positive control. This antibody was generated by using E. coli expressed human IL13 as immunogen. An isotype-matched mouse anti-HIV-1 gp120 MAb was used as irrelevant negative control. The wells were then washed with PBST. Bound antibody was detected by incubation with diluted HRP-goat anti-mouse IgG (Fc) (Jackson ImmunoResearch) for 1 hour at room temperature. Peroxidase substrate solution was then added for color development as described above. The OD₄₅₀ was measured using an ELISA reader.
For orientation: ELISA stands for enzyme-linked immunosorbent assay.

Assay [2] deals with T2, 12-mer peptide of human IL13, YCAALESLINVS (human, synthesized via SPOT on cellulose membrane).
T2 peptide: YCAALESLINVS
Description: peptide spot analysis on cellulose membrane. An excerpt: This epitope was further confirmed by peptide spot analysis. The entire human IL13 peptide was scanned with a series of overlapping 12-mer peptides synthesized via SPOT on cellulose membrane. The only anti-IL13 MAb reactive peptide was identified as a 12-mer peptide of amino acid #44-56, […] (SEQ ID NO 19), which is overlapping with the region identified through domain swapping experiments.

Assay [3] deals with T1, human IL13. Description: cell-based or functional assay.
Assay [4] concerns the target T3, IL-13 (antigen captured on the plate in the Fab ELISAs of Examples 9 and 10) (UniProt P35225 35-146).
T3 construct: also called the antigen IL-13
The assay is described as follows: ELISA; IL-13 captured on the plate in a limiting amount; Fab titrated 1:3; detected with a secondary antibody specific for Fab; A560 nm.

For assay [5], the target named is T3, IL-13 (antigen captured on the plate in …). Description: competition ELISA; IL-13 captured on the plate; purified Fab pre-mixed with a constant concentration of labeled chimeric anti-IL-13 Fab (228 B/C #3); Abs 590 nm of bound labeled Fab. The procedure: To confirm that these combinatorial candidates maintained function, a competition assay was performed. For this assay, IL-13 was captured on an ELISA plate. The candidates, which are purified Fabs, were pre-mixed in varying concentrations to a constant concentration of labeled chimeric anti-IL-13 Fab. This mixture was added to the ELISA plate. The labeled chimeric anti-IL-13 capable of binding to the plate-bound IL-13 were detected.

Assay [6] has the same target. Description: ELISA; IL-13 captured on the plate in a limiting amount; Fab titrated 1:3; detected with a secondary antibody specific for Fab; A560 nm. The source holds these as a separate data set.
For assay [7] the target is unchanged. The assay is described as follows: ELISA; IL-13 captured on the plate in a limiting amount; Fab titrated 1:3; detected with a secondary antibody specific for Fab; A 560 nm.
The target is the same in assay [8]. The assay is described as follows: ELISA; IL-13 captured on the plate in a limiting amount; Fab titrated 1:3; detected with a secondary antibody specific for Fab; A410 nm.
The target is the same in assay [9]. The assay is described as follows: ELISA; IL-13 captured on the plate in a limiting amount; Fab titrated 1:3; detected with a secondary antibody specific for Fab; A560 nm. The source holds these as a separate data set.
The target of the next assay is T4, mouse IL13 (mouse, UniProt P20109 22-131, limits assumed).
T4 construct: also called E. coli expressed mouse IL13 (R&D Systems); murine IL13
T4 sequence: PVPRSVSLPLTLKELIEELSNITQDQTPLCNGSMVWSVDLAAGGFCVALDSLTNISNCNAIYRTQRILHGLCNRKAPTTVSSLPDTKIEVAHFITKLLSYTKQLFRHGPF
Description: ELISA on plate-coated E. coli expressed mouse IL13. The procedure:
as §1, §2

T3 sequence (P35225 35-146 limits assumed): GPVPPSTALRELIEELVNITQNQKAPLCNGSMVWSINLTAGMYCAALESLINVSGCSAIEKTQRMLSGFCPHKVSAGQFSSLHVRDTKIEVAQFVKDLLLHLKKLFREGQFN
T1 sequence (P35225 other isoform, or with tags, fused parts or gaps limits assumed): as the sequence (P35225 35-146 limits assumed) above, with Q110R counted along it

B1: anti-IL13 monoclonal antibody 228B/C-1 (antibody, V domains shown)
VH: QVQLQESGPGLVAPSQSLSITCTVSGFSLNAYSVNWVRQPPGKGLEWLGMIWGDGKIVYNSALKSRLNISKDSSKSQVFLKMSSLQSDDTARYYCAGDGYYPYAMDNWGHGTSVTVSS
VL: NIVLTQSPASLAVSLGQRATISCRASKSVDSYGNSFMHWYQQKPGQPPKLLIYLASNLESGVPARFSGSGSRTDFTLTIDPVEADDAASYYCQQNNEDPRTFGGGTKLEIK
Consider B1, for which, in the assay with human IL13 [1], the “EC50 (read off the curve)” value is approximately 0.01 nM. For the same molecule, in assay [2], the binding result was “binds”. In addition, in the assay with human IL13 [3], the “molar stoichiometric ratio (MAb:IL13) for complete inhibition, CD14 and CD23 assays” value was 0.5 MAb:IL13 molar ratio; the “molar stoichiometric ratio between 228B/C-1 and IL13 for complete inhibition, Stat6 assay” value is ~0.5 MAb:IL13 molar ratio.

B2: chimeric Fab of 228B/C (Fab, V domains shown)
VH: B1 VH
VL: B1 VL
modifications: Used labeled in the competition assay of paragraph 260; the label is not named.
notes: also called chimeric clone
For B2, the concentration for a half-maximal effect (EC50 (read off the curve)) in assay [4] is approximately 10 ng/mL; in assay [6], approximately 7 ng/mL; in assay [7] it was approximately 7 ng/mL; in assay [8], approximately 20 ng/mL; in assay [9], approximately 4 ng/mL. Further, the “IC50 (read off the curve)” value in assay [5] was approximately 90 ng/mL.

B3: anti-IL13 monoclonal antibody 227-26 (antibody, V domains shown)
VH: QVQLQQSGDDLVLPGASVKLSCKASGYTFTSYWINWIKQRPGQGLEWIGHIAPGSGSTYFNEMFKGKATLTVDTSSSTAYIQLSSLSSEDSAVYFCARSDIFLSYAMDYWGQGTSVTVSS
VL: DVLMTQTPLSLPVSLGDQASISCRSSQSIVHSNGNTYLQWYLQKPGQSPKLLIYKVSNRFSGVPDRFSGSGSGTDFTLKISRVEAEDLGVYYCFQGSHVPYTFGGGTKLEIK
notes: also called hybridoma ATCC PTA-5654
Take B3: the “EC50 (read off the curve)” value with human IL13 [1] is approximately 0.02 nM. In addition, the binding result with mouse IL13 was “no binding”.
